In the first assay the target is FcγRIIIa (human) (UniProt P08637). The experiment in a line: cell-based or functional assay.
FcγRIIIa (human), sequence (P08637 17-208 limits assumed): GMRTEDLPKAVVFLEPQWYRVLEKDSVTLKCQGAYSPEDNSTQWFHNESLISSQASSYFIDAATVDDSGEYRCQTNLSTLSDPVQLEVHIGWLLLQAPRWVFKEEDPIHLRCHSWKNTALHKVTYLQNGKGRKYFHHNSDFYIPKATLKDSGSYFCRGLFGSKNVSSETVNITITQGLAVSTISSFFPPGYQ
On to “2h F243L/R292P/Y300L (construct 7), anti-CD142 antibody”, for which the ADCC EC50 is 0.31 ng/mL and the ADCC fold (EC50 IgG1 wt/EC50 construct) is 15 fold.

Consider “2h G237A/S239D/I332E (construct 12, X = A), anti-CD142 antibody”, for which the ADCC EC50 came to 0.47 ng/mL and the ADCC fold (EC50 IgG1 wt/EC50 construct) was 10 fold.

“2h K326A/E333A (construct 11), anti-CD142 antibody”: the ADCC EC50 was 21 ng/mL and the ADCC fold (EC50 IgG1 wt/EC50 construct) stood at 0.2 fold.

Turning to “2h S239D/H268F/S324T/I332E (construct 9), anti-CD142 antibody”, the ADCC EC50 came out at 0.7 ng/mL.

Regarding “2h S239D/I332E (construct 5), anti-CD142 antibody”, the ADCC (shift in apparent EC50 against IgG1 wt), PBMC effectors, MDA-MB-231 targets came to 8 fold; the ADCC EC50 was 0.53 ng/mL; the ADCC fold (EC50 IgG1 wt/EC50 construct) amounted to 9 fold.

Consider “IgG1 wt (construct 1), anti-CD142 antibody with wild type human IgG1 constant region”, for which the ADCC EC50 was 4.8 ng/mL.

The target is the same in a further assay. The experiment in a line: cell-based or functional assay. The source holds these as a separate data set.
With “2h S239D/K326A/E333A (construct 16), anti-CD142 antibody”, the ADCC EC50 stood at 0.14 ng/mL.

For the substance “2h S267E/I332E (construct 17), anti-CD142 antibody”, the ADCC EC50 came out at 5.6 ng/mL and the ADCC fold (EC50 IgG1 wt/EC50 construct) came to 0.08 fold.

For “IgG1 wt (construct 1), anti-CD142 antibody with wild type human IgG1 constant region”, the ADCC EC50 came out at 0.42 ng/mL and the ADCC fold (EC50 IgG1 wt/EC50 construct) was found to be 1 fold.

The values above are taken from patent US20130011386A1.
